According to article doi:10.1101/2022.10.31.514592 (bioRxiv, 2022):

Experiments:
spike BA.1 Omicron-6P = spike BA.1 Omicron-6P (SARS-CoV-2, Omicron BA.1, strain, biotinylated (EZ-Link Sulfo-NHS-Biotin) for BLI); assay: ELISA
spike WT-6P [1] = molecular target: T1, spike WT-6P (SARS-CoV-2, wildtype (Wuhan-Hu-1 type), UniProt P0DTC2, stabilised, biotinylated (EZ-Link Sulfo-NHS-Biotin) for BLI); assay: ELISA
spike WT-6P [2] = molecular target: T1, spike WT-6P; assay: BLI

B1: S626-161 IgG (antibody, V domains shown)
VH: QLQLQESGPGLVKPSEALSLTCTVSGGSISTSNYYWGWIRQPPGKGLEWIGSIYYRGGTHYNPSLKTRVTISVDTSKNQFSLKLSSVTAADTAVYYCARHTYFYDIVGAAVWEPFDIWGQGTMVTVSS
VL: not shown
With B1 the “fold increase of ELISA binding compared with spike BA.1-2P” value (“fold increase of ELISA binding” below) (spike BA.1 Omicron-6P) was greater than 3 fold and the binding result (spike WT-6P [1]) was “binds”.

B2: S626-161 Fab (Fab, V domains shown)
VH: QLQLQESGPGLVKPSEALSLTCTVSGGSISTSNYYWGWIRQPPGKGLEWIGSIYYRGGTHYNPSLKTRVTISVDTSKNQFSLKLSSVTAADTAVYYCARHTYFYDIVGAAVWEPFDIWGQGTMVTVSS
VL: not shown
B2: binds (spike WT-6P [2]).

B3: S451-1140 IgG (antibody, V domains shown)
VH: EVQLVESGGGLVPPGGSLRLSCAASGFIFSNYAMTWVRQAPGKGLEWVSAISGGGGSTDYADSVKGRFTISRDNSKNTLYLQMNSLRAEDTAVYYCAKDLFGSGWSLFDNWGQGTLVTVSS
VL: not shown
With B3 the “fold increase of ELISA binding” value (spike BA.1 Omicron-6P) was greater than 3 fold and the binding result (spike WT-6P [2]) was “binds”.

B4: S451-1140 Fab (Fab, V domains shown)
VH: EVQLVESGGGLVPPGGSLRLSCAASGFIFSNYAMTWVRQAPGKGLEWVSAISGGGGSTDYADSVKGRFTISRDNSKNTLYLQMNSLRAEDTAVYYCAKDLFGSGWSLFDNWGQGTLVTVSS
VL: not shown
B4: binds (spike WT-6P [2]).

B5: S728-1157 IgG (antibody, V domains shown)
VH: EVQLVESGGGLVQPGGSLRLSCAASGLLVSRNYMNWVRQAPGKGLEWVSIIYSGGSTFYADSVEGRFTISRDESKNTLYLQMNSLRTDDTAVYYCARDLSDYGGIDCWGQGTLVTVSS
VL: ELTQPLSVSMALGQTARISCGGDNVGSQNVHWYQQRPGQAPVLVIYRDSNRPSGIPERFSGSKSGNTATLTISRAQAGDEADYYCQVWDSSTVAFGGGTKLTVL
With B5 the “fold increase of ELISA binding” value (spike BA.1 Omicron-6P) was greater than 3 fold and the binding result (spike WT-6P [2]) was “binds”.

B6: S728-1157 Fab (Fab, V domains shown)
VH: EVQLVESGGGLVQPGGSLRLSCAASGLLVSRNYMNWVRQAPGKGLEWVSIIYSGGSTFYADSVEGRFTISRDESKNTLYLQMNSLRTDDTAVYYCARDLSDYGGIDCWGQGTLVTVSS
VL: ELTQPLSVSMALGQTARISCGGDNVGSQNVHWYQQRPGQAPVLVIYRDSNRPSGIPERFSGSKSGNTATLTISRAQAGDEADYYCQVWDSSTVAFGGGTKLTVL
B6: binds (spike WT-6P [2]).
